What was measured:
Format in all cases: in vivo
[1] = system: Arabidopsis thaliana T1 plants; experiment: sulfentrazone tolerance of transgenic Arabidopsis thaliana T1 plants (spray, grade of pesticide damage); settings: 7 DAT, number of plants of 24 per genotype, grades
In short: (§1)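 Glufosinate-selected T1 lines expressing PPO variants, with control-vector and wild-type plants (24 per genotype), were sprayed 18 days after sowing with saflufenacil 25 or 100, sulfentrazone 450 or 900, flumioxazin 60 or 240, or oxyfluorfen 180 or 720 g ai/ha, or water. Injured/total leaf area was graded 0–3 at 7 DAT.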

[2] = system: transgenic soybean plants; experiment: flumioxazin tolerance of transgenic soybean plants (spray, grade of pesticide damage); settings: for The grade of pesticide damage/plant: grade 0 / The grade of pesticide damage/plant: grade 1 / The grade of pesticide damage/plant: grade 2 / The grade of pesticide damage/plant: grade 3: 7 DAT, number of plants of 16 per genotype, grades
[3] = system: Arabidopsis thaliana T1 plants; experiment: flumioxazin tolerance of transgenic Arabidopsis thaliana T1 plants (spray, grade of pesticide damage); settings: 7 DAT, number of plants of 24 per genotype, grades
In short: as §1

[4] = system: Arabidopsis thaliana T1 plants; experiment: saflufenacil tolerance of transgenic Arabidopsis thaliana T1 plants (spray, grade of pesticide damage); settings: 7 DAT, number of plants of 24 per genotype, grades
In short: as §1

[5] = system: Arabidopsis thaliana T1 plants; experiment: oxyfluorfen tolerance of transgenic Arabidopsis thaliana T1 plants (spray, grade of pesticide damage); settings: 7 DAT, number of plants of 24 per genotype, grades
In short: as §1

[6] = system: transgenic soybean plants; experiment: oxyfluorfen tolerance of transgenic soybean plants (spray, grade of pesticide damage); settings: for The grade of pesticide damage/plant: grade 0 / The grade of pesticide damage/plant: grade 1 / The grade of pesticide damage/plant: grade 2 / The grade of pesticide damage/plant: grade 3: 7 DAT, number of plants of 16 per genotype, grades; for tolerance to oxyfluorfen: soybean
[7] = system: transgenic soybean plants; experiment: saflufenacil tolerance of transgenic soybean plants (spray, grade of pesticide damage); design: key to damage levels rated at grade: grade 0 means that the growth status of plants is essentially consistent with those sprayed with the blank solvent (water); grade 1 means that the average of the damage levels of plants is less than 10%; grade 2 means that the average of the damage levels of plants is greater than 100%; grade 3 means that the average of the damage levels of plants is 100%; settings: for The grade of pesticide damage/plant: grade 0 / The grade of pesticide damage/plant: grade 1 / The grade of pesticide damage/plant: grade 2 / The grade of pesticide damage/plant: grade 3: 7 DAT, number of plants of 16 per genotype, grades

B1: PPO6A: nucleotide sequence encoding microbial protoporphyrinogen oxidase PPO6 (SEQ ID NO:6), Arabidopsis thaliana/soybean common codon usage bias (nucleic acid)
DNA: ATGTCTTCTCCTAATGGGAAGTATTTGATGCTTTACAGTACCACCGACGGTCACACAAAAACCATTATGGATACAATGGCTAAACATATAATGGAAGAAGCAAAAGTACAATGTGATGTTGTGGACATGAGAGATGGAGACAAATACGAGTTAGCTGCTTATGAGAAGGTGATGCTAGGAGCTTCTATTAGATATGGATTCTTCAGCCGCACTCTTCATACATATACCACTCATCATGTTGATGAACTTAACTCAATGCCTTCCGCTTTCTTTGGAGTCAATCTCACTGCTCGTAAAACTTCAAAGAACACTGCAATGACTAATGCATACACAAGAAAGTTTCTGGATCAATCCATGTGGGTTCCTCAATTATCTGGCGTTTTTGCTGGTGCTTTGTGGTATCCTAGGTACAATTTCTTTGACAGGGTTATGATTCAGTTCATCATGAAGGTAACTGGTGGTGAAACAAACACAACGAAAGAGATAGTTTACACTGATTGGGATGCTGTTCACAAATTTGCAACAGATTTTGTGCAGCTACCAGCCACGGCGATACCCCGGAGCAAGCCGGCGACGTCGGTCCCACCAGCTAGTGTGGCCAACTATGATAATGGGGCACGAGTAGCGCTTGTGGTTGTGGGAATCTCAGCAGCCATCATCTTTGGCCGTCGATTGATTCTCGCAAAGAGATTCTGA
modifications: The nucleotide sequence of PPO6A
- The grade of pesticide: grade 0 ([1]; sulfentrazone 450 g ai/ha (1×)): 24
- The grade of pesticide: grade 1 ([1]; sulfentrazone 450 g ai/ha (1×)): 0
- The grade of pesticide: grade 2 ([1]; sulfentrazone 450 g ai/ha (1×)): 0
- The grade of pesticide: grade 3 ([1]; sulfentrazone 450 g ai/ha (1×)): 0
- The grade of pesticide: grade 0 ([1]; sulfentrazone 900 g ai/ha (2×)): 20
- The grade of pesticide: grade 1 ([1]; sulfentrazone 900 g ai/ha (2×)): 4
- The grade of pesticide: grade 2 ([1]; sulfentrazone 900 g ai/ha (2×)): 0
- The grade of pesticide: grade 3 ([1]; sulfentrazone 900 g ai/ha (2×)): 0
- The grade of pesticide damage/plant: grade 0 ([2]; flumioxazin 120 g ai/ha (2×)): 16 plant
- The grade of pesticide damage/plant: grade 1 ([2]; flumioxazin 120 g ai/ha (2×)): 0 plant
- The grade of pesticide damage/plant: grade 2 ([2]; flumioxazin 120 g ai/ha (2×)): 0 plant
- The grade of pesticide damage/plant: grade 3 ([2]; flumioxazin 120 g ai/ha (2×)): 0 plant
- The grade of pesticide damage/plant: grade 0 ([2]; flumioxazin 240 g ai/ha (4×)): 16 plant
- The grade of pesticide damage/plant: grade 1 ([2]; flumioxazin 240 g ai/ha (4×)): 0 plant
- The grade of pesticide damage/plant: grade 2 ([2]; flumioxazin 240 g ai/ha (4×)): 0 plant
- The grade of pesticide damage/plant: grade 3 ([2]; flumioxazin 240 g ai/ha (4×)): 0 plant
- tolerance to flumioxazin ([2]; soybean, flumioxazin at different concentrations (120 and 240 g ai/ha)): high-resistant tolerance
- The grade of pesticide damage/plant: grade 0 ([3]; flumioxazin 60 g ai/ha (1×)): 24 plant
- The grade of pesticide damage/plant: grade 1 ([3]; flumioxazin 60 g ai/ha (1×)): 0 plant
- The grade of pesticide damage/plant: grade 2 ([3]; flumioxazin 60 g ai/ha (1×)): 0 plant
- The grade of pesticide damage/plant: grade 3 ([3]; flumioxazin 60 g ai/ha (1×)): 0 plant
- The grade of pesticide damage/plant: grade 0 ([3]; flumioxazin 240 g ai/ha (4×)): 22 plant
- The grade of pesticide damage/plant: grade 1 ([3]; flumioxazin 240 g ai/ha (4×)): 2 plant
- The grade of pesticide damage/plant: grade 2 ([3]; flumioxazin 240 g ai/ha (4×)): 0 plant
- The grade of pesticide damage/plant: grade 3 ([3]; flumioxazin 240 g ai/ha (4×)): 0 plant
- The grade of pesticide damage/plant: grade 0 ([4]; saflufenacil 25 g ai/ha (1×)): 24 plant
- The grade of pesticide damage/plant: grade 1 ([4]; saflufenacil 25 g ai/ha (1×)): 0 plant
- The grade of pesticide damage/plant: grade 2 ([4]; saflufenacil 25 g ai/ha (1×)): 0 plant
- The grade of pesticide damage/plant: grade 3 ([4]; saflufenacil 25 g ai/ha (1×)): 0 plant
- The grade of pesticide damage/plant: grade 0 ([4]; saflufenacil 100 g ai/ha (4×)): 2 plant
- The grade of pesticide damage/plant: grade 1 ([4]; saflufenacil 100 g ai/ha (4×)): 22 plant
- The grade of pesticide damage/plant: grade 2 ([4]; saflufenacil 100 g ai/ha (4×)): 0 plant
- The grade of pesticide damage/plant: grade 3 ([4]; saflufenacil 100 g ai/ha (4×)): 0 plant
- The grade of pesticide damage/plant: grade 0 ([5]; oxyfluorfen 180 g ai/ha (1×)): 24 plant
- The grade of pesticide damage/plant: grade 1 ([5]; oxyfluorfen 180 g ai/ha (1×)): 0 plant
- The grade of pesticide damage/plant: grade 2 ([5]; oxyfluorfen 180 g ai/ha (1×)): 0 plant
- The grade of pesticide damage/plant: grade 3 ([5]; oxyfluorfen 180 g ai/ha (1×)): 0 plant
- The grade of pesticide damage/plant: grade 0 ([5]; oxyfluorfen 720 g ai/ha (4×)): 20 plant
- The grade of pesticide damage/plant: grade 1 ([5]; oxyfluorfen 720 g ai/ha (4×)): 4 plant
- The grade of pesticide damage/plant: grade 2 ([5]; oxyfluorfen 720 g ai/ha (4×)): 0 plant
- The grade of pesticide damage/plant: grade 3 ([5]; oxyfluorfen 720 g ai/ha (4×)): 0 plant
- The grade of pesticide damage/plant: grade 0 ([6]; oxyfluorfen 360 g ai/ha (2×)): 16 plant
- The grade of pesticide damage/plant: grade 1 ([6]; oxyfluorfen 360 g ai/ha (2×)): 0 plant
- The grade of pesticide damage/plant: grade 2 ([6]; oxyfluorfen 360 g ai/ha (2×)): 0 plant
- The grade of pesticide damage/plant: grade 3 ([6]; oxyfluorfen 360 g ai/ha (2×)): 0 plant
- The grade of pesticide damage/plant: grade 0 ([6]; oxyfluorfen 720 g ai/ha (4×)): 16 plant
- The grade of pesticide damage/plant: grade 1 ([6]; oxyfluorfen 720 g ai/ha (4×)): 0 plant
- The grade of pesticide damage/plant: grade 2 ([6]; oxyfluorfen 720 g ai/ha (4×)): 0 plant
- The grade of pesticide damage/plant: grade 3 ([6]; oxyfluorfen 720 g ai/ha (4×)): 0 plant
- tolerance to oxyfluorfen ([6]; oxyfluorfen at four-fold field concentration (720 g ai/ha)): high-resistant tolerance
- tolerance to oxyfluorfen ([6]; oxyfluorfen at two-fold field concentration (360 g ai/ha)): high-resistant tolerance
- The grade of pesticide damage/plant: grade 0 ([7]; saflufenacil 50 g ai/ha (2×)): 16 plant
- The grade of pesticide damage/plant: grade 1 ([7]; saflufenacil 50 g ai/ha (2×)): 0 plant
- The grade of pesticide damage/plant: grade 2 ([7]; saflufenacil 50 g ai/ha (2×)): 0 plant
- The grade of pesticide damage/plant: grade 3 ([7]; saflufenacil 50 g ai/ha (2×)): 0 plant
- The grade of pesticide damage/plant: grade 0 ([7]; saflufenacil 100 g ai/ha (4×)): 16 plant
- The grade of pesticide damage/plant: grade 1 ([7]; saflufenacil 100 g ai/ha (4×)): 0 plant
- The grade of pesticide damage/plant: grade 2 ([7]; saflufenacil 100 g ai/ha (4×)): 0 plant
- The grade of pesticide damage/plant: grade 3 ([7]; saflufenacil 100 g ai/ha (4×)): 0 plant
- tolerance to saflufenacil ([7]; soybean, saflufenacil at four-fold field concentration (100 g ai/ha)): high-resistant tolerance
- damage levels rated at grade ([7]; soybean, saflufenacil at two-fold field concentration (50 g ai/ha)): 0
- tolerance to saflufenacil ([7]; soybean, saflufenacil, compared with the control vector and CK): different extents of tolerance

— patent US20240200091A1, “USE OF PROTOPORPHYRINOGEN OXIDASE” (BEIJING DABEINONG BIOTECHNOLOGY CO., LTD., priority 2021, published 2024)
